Here are results for one protein from FireProtDB (doi:10.1016/s0022-2836(03)00043-3).

The conditions of the series: Homo sapiens; pH 8.5; 20 °C; Urea; CD; Tris 10 mM; reversible: yes; whole UniProt chain shown.

B1: Cyclin-dependent kinase inhibitor 2A wild type, P42771 (protein)
chain: MEPAAGSSMEPSADWLATAAARGRVEEVRALLEAGALPNAPNSYGRRPIQVMMMGSARVAELLLLHGAEPNCADPATLTRPVHDAAREGFLDTLVVLHRAGARLDVRDAWGRLPVDLAEELGHRDVARYLRAAAGGTRGSNHARIDAAEGPSDIPD
B1: the denaturant m value stood at 1.72 kcal/mol/M, the “denaturant midpoint (higher = more stable)” value came to 2 M and the unfolding free energy amounted to 3.34 kcal/mol.
